This is an account of results in US20220204580A1 (AstraZeneca / MedImmune, published 2022).

Numbered stars: 1 amine (or outer) side, 2 acyl side, 3 side chain; on linkers, the order of the positions; unused ones are H or OH. Bridge positions count the residues as written; N and C are the ends. Square brackets hold non-standard residues; d marks the D form. Side chains are listed from the residue outwards. Ends that are not written are not given here. * marks the point of attachment. C18 diacid = O=C(O)CCCCCCCCCCCCCCCCC(=O)*; γGlu = O=C(O)[C@H](CCC(=O)[*:2])N[*:1]; αMeF = C[C@](N)(Cc1ccccc1)C(=O)O; Aib = CC(C)(N)C(=O)O

To fix the notation:
T1: human calcitonin receptor (human, UniProt P30988 25-474)
T1 sequence (looked up): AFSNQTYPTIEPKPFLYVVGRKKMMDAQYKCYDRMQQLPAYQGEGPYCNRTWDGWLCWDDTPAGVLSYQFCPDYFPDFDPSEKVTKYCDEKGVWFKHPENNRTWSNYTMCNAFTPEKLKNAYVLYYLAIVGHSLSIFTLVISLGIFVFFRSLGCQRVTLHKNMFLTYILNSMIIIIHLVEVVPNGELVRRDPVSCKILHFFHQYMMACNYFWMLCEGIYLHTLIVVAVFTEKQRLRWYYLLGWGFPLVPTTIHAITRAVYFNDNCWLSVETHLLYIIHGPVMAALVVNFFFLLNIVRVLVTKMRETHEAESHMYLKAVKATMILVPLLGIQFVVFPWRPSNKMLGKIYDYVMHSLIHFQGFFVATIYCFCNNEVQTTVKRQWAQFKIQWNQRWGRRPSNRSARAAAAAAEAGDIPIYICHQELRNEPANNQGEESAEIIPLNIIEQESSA

T2: human amylin receptor (calcitonin receptor co-expressed with receptor activity modifying protein, RAMP3) (human, UniProt P30988 25-474; O60896 24-148)
T2 sequence (looked up) 1: T1 sequence (looked up)
T2 sequence (looked up) 2: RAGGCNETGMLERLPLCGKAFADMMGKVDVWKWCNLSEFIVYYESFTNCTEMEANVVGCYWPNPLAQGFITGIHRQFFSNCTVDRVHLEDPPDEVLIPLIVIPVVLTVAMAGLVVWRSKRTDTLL

B1: Peptide 146 (SEQ ID NO: 146) (peptide)
peptide: K([γGlu-C18 diacid])KCNTATCATQRLANFL[Aib]HSSNNFGPILPPTHVGSETY-NH2
modifications: disulfide 3-8; N-terminus assumed
SMILES: CC[C@H](C)[C@H](NC(=O)[C@@H]1CCCN1C(=O)CNC(=O)[C@H](Cc1ccccc1)NC(=O)[C@H](CC(N)=O)NC(=O)[C@H](CC(N)=O)NC(=O)[C@H](CO)NC(=O)[C@H](CO)NC(=O)[C@H](Cc1c[nH]cn1)NC(=O)C(C)(C)NC(=O)[C@H](CC(C)C)NC(=O)[C@H](Cc1ccccc1)NC(=O)[C@H](CC(N)=O)NC(=O)[C@H](C)NC(=O)[C@H](CC(C)C)NC(=O)[C@H](CCCNC(=N)N)NC(=O)[C@H](CCC(N)=O)NC(=O)[C@@H](NC(=O)[C@H](C)NC(=O)[C@@H]1CSSC[C@H](NC(=O)[C@H](CCCCN)NC(=O)[C@@H](N)CCCCNC(=O)CC[C@H](NC(=O)CCCCCCCCCCCCCCCCC(=O)O)C(=O)O)C(=O)N[C@@H](CC(N)=O)C(=O)N[C@@H]([C@@H](C)O)C(=O)N[C@@H](C)C(=O)N[C@@H]([C@@H](C)O)C(=O)N1)[C@@H](C)O)C(=O)N[C@@H](CC(C)C)C(=O)N1CCC[C@H]1C(=O)N1CCC[C@H]1C(=O)N[C@H](C(=O)N[C@@H](Cc1c[nH]cn1)C(=O)N[C@H](C(=O)NCC(=O)N[C@@H](CO)C(=O)N[C@@H](CCC(=O)O)C(=O)N[C@H](C(=O)N[C@@H](Cc1ccc(O)cc1)C(N)=O)[C@@H](C)O)C(C)C)[C@@H](C)O
B2: Peptide 147 (SEQ ID NO: 147) (peptide)
peptide: K([γGlu-C18 diacid])KCNTATCATQRLANFL[Aib]HSSNHFGPILPPTNVGSETY-NH2
modifications: disulfide 3-8; N-terminus assumed
SMILES: CC[C@H](C)[C@H](NC(=O)[C@@H]1CCCN1C(=O)CNC(=O)[C@H](Cc1ccccc1)NC(=O)[C@H](Cc1c[nH]cn1)NC(=O)[C@H](CC(N)=O)NC(=O)[C@H](CO)NC(=O)[C@H](CO)NC(=O)[C@H](Cc1c[nH]cn1)NC(=O)C(C)(C)NC(=O)[C@H](CC(C)C)NC(=O)[C@H](Cc1ccccc1)NC(=O)[C@H](CC(N)=O)NC(=O)[C@H](C)NC(=O)[C@H](CC(C)C)NC(=O)[C@H](CCCNC(=N)N)NC(=O)[C@H](CCC(N)=O)NC(=O)[C@@H](NC(=O)[C@H](C)NC(=O)[C@@H]1CSSC[C@H](NC(=O)[C@H](CCCCN)NC(=O)[C@@H](N)CCCCNC(=O)CC[C@H](NC(=O)CCCCCCCCCCCCCCCCC(=O)O)C(=O)O)C(=O)N[C@@H](CC(N)=O)C(=O)N[C@@H]([C@@H](C)O)C(=O)N[C@@H](C)C(=O)N[C@@H]([C@@H](C)O)C(=O)N1)[C@@H](C)O)C(=O)N[C@@H](CC(C)C)C(=O)N1CCC[C@H]1C(=O)N1CCC[C@H]1C(=O)N[C@H](C(=O)N[C@@H](CC(N)=O)C(=O)N[C@H](C(=O)NCC(=O)N[C@@H](CO)C(=O)N[C@@H](CCC(=O)O)C(=O)N[C@H](C(=O)N[C@@H](Cc1ccc(O)cc1)C(N)=O)[C@@H](C)O)C(C)C)[C@@H](C)O
B3: Peptide 148 (SEQ ID NO: 148) (peptide)
peptide: K([γGlu-C18 diacid])KCNTATCATQRLANFL[Aib]HSSNNFGPILPPTNVGPNTY-NH2
modifications: disulfide 3-8; N-terminus assumed
SMILES: CC[C@H](C)[C@H](NC(=O)[C@@H]1CCCN1C(=O)CNC(=O)[C@H](Cc1ccccc1)NC(=O)[C@H](CC(N)=O)NC(=O)[C@H](CC(N)=O)NC(=O)[C@H](CO)NC(=O)[C@H](CO)NC(=O)[C@H](Cc1c[nH]cn1)NC(=O)C(C)(C)NC(=O)[C@H](CC(C)C)NC(=O)[C@H](Cc1ccccc1)NC(=O)[C@H](CC(N)=O)NC(=O)[C@H](C)NC(=O)[C@H](CC(C)C)NC(=O)[C@H](CCCNC(=N)N)NC(=O)[C@H](CCC(N)=O)NC(=O)[C@@H](NC(=O)[C@H](C)NC(=O)[C@@H]1CSSC[C@H](NC(=O)[C@H](CCCCN)NC(=O)[C@@H](N)CCCCNC(=O)CC[C@H](NC(=O)CCCCCCCCCCCCCCCCC(=O)O)C(=O)O)C(=O)N[C@@H](CC(N)=O)C(=O)N[C@@H]([C@@H](C)O)C(=O)N[C@@H](C)C(=O)N[C@@H]([C@@H](C)O)C(=O)N1)[C@@H](C)O)C(=O)N[C@@H](CC(C)C)C(=O)N1CCC[C@H]1C(=O)N1CCC[C@H]1C(=O)N[C@H](C(=O)N[C@@H](CC(N)=O)C(=O)N[C@H](C(=O)NCC(=O)N1CCC[C@H]1C(=O)N[C@@H](CC(N)=O)C(=O)N[C@H](C(=O)N[C@@H](Cc1ccc(O)cc1)C(N)=O)[C@@H](C)O)C(C)C)[C@@H](C)O
B4: Peptide 16 (SEQ ID NO: 16) (peptide)
peptide: K([γGlu-C18 diacid])CNTATCATQRLANFLRHSSNN[αMeF]GPILPPTEVGSNTY-NH2
modifications: disulfide 2-7; N-terminus assumed
SMILES: CC[C@H](C)[C@H](NC(=O)[C@@H]1CCCN1C(=O)CNC(=O)[C@](C)(Cc1ccccc1)NC(=O)[C@H](CC(N)=O)NC(=O)[C@H](CC(N)=O)NC(=O)[C@H](CO)NC(=O)[C@H](CO)NC(=O)[C@H](Cc1c[nH]cn1)NC(=O)[C@H](CCCNC(=N)N)NC(=O)[C@H](CC(C)C)NC(=O)[C@H](Cc1ccccc1)NC(=O)[C@H](CC(N)=O)NC(=O)[C@H](C)NC(=O)[C@H](CC(C)C)NC(=O)[C@H](CCCNC(=N)N)NC(=O)[C@H](CCC(N)=O)NC(=O)[C@@H](NC(=O)[C@H](C)NC(=O)[C@@H]1CSSC[C@H](NC(=O)[C@@H](N)CCCCNC(=O)CC[C@H](NC(=O)CCCCCCCCCCCCCCCCC(=O)O)C(=O)O)C(=O)N[C@@H](CC(N)=O)C(=O)N[C@@H]([C@@H](C)O)C(=O)N[C@@H](C)C(=O)N[C@@H]([C@@H](C)O)C(=O)N1)[C@@H](C)O)C(=O)N[C@@H](CC(C)C)C(=O)N1CCC[C@H]1C(=O)N1CCC[C@H]1C(=O)N[C@H](C(=O)N[C@@H](CCC(=O)O)C(=O)N[C@H](C(=O)NCC(=O)N[C@@H](CO)C(=O)N[C@@H](CC(N)=O)C(=O)N[C@H](C(=O)N[C@@H](Cc1ccc(O)cc1)C(N)=O)[C@@H](C)O)C(C)C)[C@@H](C)O

One test concerns the target T1, human calcitonin receptor. The test can be described thus: cell-based or functional assay.
For the molecule B1, the “EC50 (cAMP production)” value was 4.87 nM.

Take B2: the “EC50 (cAMP production)” value amounted to 1.51 nM.

Consider B3, for which the “EC50 (cAMP production)” value was determined as 0.728 nM.

For the molecule B4, the “EC50 (cAMP production)” value is 2.02 nM.

The target of the next test is T2, human amylin receptor (calcitonin …). The test can be described thus: cell-based or functional assay.
As for B1, the “EC50 (cAMP production)” value is 2.53 nM and the “Ratio (EC50 hCTR / EC50 hAMYR3)” value came out at 1.9.

With B2, the “EC50 (cAMP production)” value was 0.802 nM and the “Ratio (EC50 hCTR / EC50 hAMYR3)” value was 1.9.

As to B3, the “EC50 (cAMP production)” value is 0.191 nM and the “Ratio (EC50 hCTR / EC50 hAMYR3)” value came to 3.8.

Regarding B4, the “EC50 (cAMP production)” value was 0.221 nM and the “Ratio (EC50 hCTR / EC50 hAMYR3)” value turned out to be 9.
